Experiment [1] has as its target T1, cynomolgus CD73 extracellular domain (ECD) (cynomolgus).
T1 construct: extracellular domain; also called Cynomolgus CD73 ECD; cyno CD73 (SPR Proteon)
The experiment is described as follows: SPR (Proteon), IgG1-TM.

Experiment [2] has as its target cynomolgus CD73 (form not stated) (cynomolgus). The experiment is described as follows: Binding, Cyno; assay not described.
Experiment [3] addresses T2, recombinant human CD73 protein (form not stated) (human, UniProt P21589 27-549).
T2 construct: also called huCD73; rCD73
T2 sequence: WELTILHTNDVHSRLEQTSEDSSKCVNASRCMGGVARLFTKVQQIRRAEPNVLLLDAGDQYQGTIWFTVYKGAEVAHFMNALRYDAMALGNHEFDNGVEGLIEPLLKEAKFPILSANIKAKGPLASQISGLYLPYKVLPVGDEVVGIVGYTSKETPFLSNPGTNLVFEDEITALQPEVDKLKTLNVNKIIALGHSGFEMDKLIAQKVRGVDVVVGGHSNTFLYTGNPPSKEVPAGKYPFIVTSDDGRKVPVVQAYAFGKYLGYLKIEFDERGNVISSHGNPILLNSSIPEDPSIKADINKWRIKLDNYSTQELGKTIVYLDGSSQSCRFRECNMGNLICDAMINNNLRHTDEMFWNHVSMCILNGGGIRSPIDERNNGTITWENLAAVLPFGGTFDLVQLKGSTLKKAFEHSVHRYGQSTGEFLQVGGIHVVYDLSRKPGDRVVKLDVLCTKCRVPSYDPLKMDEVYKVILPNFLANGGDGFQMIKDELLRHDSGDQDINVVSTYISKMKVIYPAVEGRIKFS
In words: assay and target not stated in Table 11 (taken as human CD73).

The target of experiment [4] is T3, human CD73 on cells (human, UniProt P21589 27-549).
T3 sequence: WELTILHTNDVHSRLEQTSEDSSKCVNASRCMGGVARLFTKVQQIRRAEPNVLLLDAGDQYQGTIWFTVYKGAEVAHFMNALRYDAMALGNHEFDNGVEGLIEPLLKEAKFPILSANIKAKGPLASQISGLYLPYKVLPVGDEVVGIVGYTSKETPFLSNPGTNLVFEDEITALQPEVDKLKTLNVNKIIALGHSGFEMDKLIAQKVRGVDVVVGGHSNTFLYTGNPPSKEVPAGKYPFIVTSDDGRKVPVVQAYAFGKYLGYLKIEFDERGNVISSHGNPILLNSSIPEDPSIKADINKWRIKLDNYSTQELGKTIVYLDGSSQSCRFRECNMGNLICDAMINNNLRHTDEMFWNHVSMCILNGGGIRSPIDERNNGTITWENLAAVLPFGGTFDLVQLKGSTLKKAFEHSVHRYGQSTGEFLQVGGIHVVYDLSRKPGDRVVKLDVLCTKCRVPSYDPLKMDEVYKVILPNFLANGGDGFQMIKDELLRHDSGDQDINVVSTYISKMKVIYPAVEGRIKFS
In words: cell-based or functional assay.

The target in another experiment is T4, cynomolgus CD73 on cells (cynomolgus).
T4 construct: whole, on cells; also called native CD73 on MK-1 cells (cynomolgus)
The experiment is described as follows: flow cytometry on MK-1 cells, IgG1-TM.

For experiment [5], the target named is T3, human CD73 on cells. The experiment is described as follows: cell-based or functional assay. This is another data set of the same source.

B1: CD730010 antibody (antibody, IgG1, V domains shown)
VH: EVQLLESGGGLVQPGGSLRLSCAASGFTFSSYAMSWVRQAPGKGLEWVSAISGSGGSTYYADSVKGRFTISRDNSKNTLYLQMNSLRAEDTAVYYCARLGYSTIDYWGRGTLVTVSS
VL: LPVLTQPPSVSGTPGQRVTISCSGSLSNIGRNPVNWYKQVPGTAPKLLIYLNNQRPSGVPDRFSGSKSGTSASLAISGLQSEDEADYYCATWDDSLNGWLFGGGTKLTVL
notes: IgG1; tested as IgG1-TM (L234F, L235E, P331S); also called clone 10
The Kd is the concentration at which binding is half-saturated. High values mean lower affinity, low ones higher affinity. As a reminder, the EC50 is the concentration that produces a half-maximal response. In turn, B1 displayed a Kd in experiment [1] of 1.92 nM. Also, the 1/EC50 in experiment [2] stood at 0.0033 nM⁻¹. The EC50 in experiment [3] was determined as 69 nM. In the experiment with human CD73 on cells [4], the “FabZAP internalization, EC50, MDA-MB-231” value amounted to 0.158 nM and the “FabZAP internalization, max toxicity, MDA-MB-231” value was 84%.

B2: CD730010 GL10 (antibody, V domains shown)
VH: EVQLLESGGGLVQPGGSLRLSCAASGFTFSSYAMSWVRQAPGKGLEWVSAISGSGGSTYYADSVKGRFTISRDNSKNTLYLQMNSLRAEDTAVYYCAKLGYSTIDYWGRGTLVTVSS
VL: LPVLTQPPSVSGTPGQRVTISCSGSLSNIGRNPVNWYKQVPGTAPKLLIYLNNQRPSGVPDRFSGSKSGTSASLAISGLQSEDEADYYCATWDDSLNGWLFGGGTKLTVL
On to B2, for which, in experiment [3], the EC50 was 205 nM.

B3: C2 (antibody, IgG1, V domains shown)
VH: EVQLLESGGGLVQPGGSLRLSCAASGFTFSSYAYSWVRQAPGKGLEWVSLIWGSWGSTYYADSVKGRFTISRDNSKNTLYLQMNSLRAEDTAVYYCARLGYSTIDMWGRGTLVTVSS
VL: QSVLTQPPSASGTPGQRVTISCSGSLSNIGRNPVNWYQQLPGTAPKLLIYLDNLRLGGVPDRFSGSKSGTSASLAISGLQSEDEADYYCATWDDSLKGWLFGGGTKLTVL
notes: also called clone 10 C2
In the experiment with cynomolgus CD73 on cells, B3 displayed a Kd of 0.105 nM.

B4: G10 (antibody, IgG1, V domains shown)
VH: EVQLLESGGGLVQPGGSLRLSCAASGFTFSSYAYSWVRQAPGKGLEWVSAISGSWGRTYYADSVKGRFTISRDNSKNTLYLQMNSLRAEDTAVYYCARLGYSTIDLWGRGTLVTVSS
VL: QSVLTQPPSASGTPGQRVTISCSGSLSNIGRNDVNWYQQLPGTAPKLLIYLNNQRLGGVPDRFSGSKSGTSASLAISGLQSEDEADYYCATWDDSLKGWLFGGGTKLTVL
notes: also called clone 10 G10
Molecule B4 registered an equilibrium dissociation constant (Kd) in the experiment with cynomolgus CD73 on cells of 0.258 nM.

B5: C1 (antibody, IgG1, V domains shown)
VH: EVQLLESGGGLVQPGGSLRLSCAASGFTFSSYAYSWVRQAPGKGLEWVSAISGSGGSTYYADSVKGRFTISRDNSKNTLYLQMNSLRAEDTAVYYCARLGYSTIDKWGRGTLVTVSS
VL: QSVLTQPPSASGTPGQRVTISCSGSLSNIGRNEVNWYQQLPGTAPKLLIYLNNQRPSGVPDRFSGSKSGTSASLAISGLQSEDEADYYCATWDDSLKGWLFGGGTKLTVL
notes: also called clone 10 C1
As for B5, the Kd with cynomolgus CD73 on cells was 0.16 nM; in experiment [1], 0.012 nM.

B6: CD730042 antibody (antibody, IgG1, V domains shown)
VH: GVQLVQSGGGLVQPGGSLRLSCAASGFTFSSYGMHWVRQAPGKGLEWVAVISYDGSIKYYADSVKGRFTISRDDSKNALYLQMNSLRAEDTAVYYCSTLSGSYGYFDYWGRGTLVTVSS
VL: QSVLTQPASVSGSPGQSITISCAGTSSDVGGYNYVSWYQQHPGKAPKLMIYEGSKRPSGVSNRFSGSKSGNTASLTISGLQAEDEADYYCSSYTTRSTRVFGGGTKLTVL
notes: IgG1
B6 displayed a 1/EC50 in experiment [2] of 0.0014 nM⁻¹.

B7: CD730046 antibody (antibody, IgG1, V domains shown)
VH: QVQLVQSGGGVVQPGRSLRLSCAASGFTFSSYGMHWVRQAPGKGLEWVAVISYDGSIKYYADSVKGRFTISRDNSKNSLFLQMNSLRDDDTATYYCARGHLLRIGDIFYYSLDVWGQGTLVTVSS
VL: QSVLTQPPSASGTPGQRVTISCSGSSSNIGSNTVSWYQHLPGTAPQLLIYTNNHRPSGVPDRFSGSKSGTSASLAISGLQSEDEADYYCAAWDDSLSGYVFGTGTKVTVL
notes: IgG1
The molecule B7 showed a 1/EC50 in experiment [2] of 0.01 nM⁻¹.

B8: CD730021 antibody (antibody, IgG1, V domains shown)
VH: QVQLQESGPGLVRPSETLSLTCTVSGGSISSSSYYWAWVRQSPGKGLEWIGNIYYRGSTYYNPSLKSRVTMSVDMSKHQFSLKLSSLNAADTAVYYCASLYSGTYVFDYWGRGTLVTVSS
VL: QSVLTQPPSASGTPGQRVTISCSGSRPNIGGNTVNWYQQLPGAAPKLLIYSNSQRPSGVPDRFSGSKYGTSASLAISGLQSDDEADYYCGTWDDSLNGPVFGRGTKLTVL
notes: IgG1
For the molecule B8, in experiment [2], the 1/EC50 came out at 0.0012 nM⁻¹.

B9: 73combo2 (C2 + GRVE + HPT) (antibody, IgG1, V domains shown)
VH: EVQLLESGGGLVQPGGSLRLSCAASGFTFSSYAYSWVRQAPGKGLEWVSLIWGSWGSTYYADSVKGRFTISRDNSKNTLYLQMNSLRAEDTAVYYCARLGYGRVDEWGRGTLVTVSS
VL: QSVLTQPPSASGTPGQRVTISCSGSLSNIGRNPVNWYQQLPGTAPKLLIYLDNLRLGGVPDRFSGSKSGTSASLAISGLQSEDEADYYCATWDDSHPGWTFGGGTKLTVL
notes: also called clone 10 combo2
Take B9: in the experiment with cynomolgus CD73 on cells, the Kd was 0.074 nM.

B10: CD730011 antibody (antibody, IgG1, V domains shown)
VH: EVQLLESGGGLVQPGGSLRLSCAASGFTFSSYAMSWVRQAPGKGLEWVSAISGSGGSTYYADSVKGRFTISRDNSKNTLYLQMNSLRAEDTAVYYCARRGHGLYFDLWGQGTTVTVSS
VL: NFMLTQPHSVSESPGKTVTISCTRSSGSIASKYVQWYQQRPGSSPMAVIYKDNQRSSGVPDRFSGSIDSSSNSASLTISGLKPEDEADYYCQSYDASNYYVFGTGTKVTVL
notes: IgG1; also called CD7300011
In experiment [2], B10 returned a 1/EC50 of 0.0027 nM⁻¹.

B11: CD730047 antibody (antibody, IgG1, V domains shown)
VH: EVQLVQSGGGVVQPGRSLRLSCAASGFTFSSYGMHWVRQAPGKGLEWVAVISYDGSIKYYADSVKGRFAISRDNAKNTLYLQMNSLRREDTAMYYCASGLTGVAGALGVWGRGTLVTVSS
VL: QSVLTQPPSASGAPGQRVTISCSGSSSNIGSNTVNWYQRLPGAAPQLLIYNNDQRPSGIPDRFSGSKSGTSGSLVISGLQSEDEADYYCAAWDDSLSGNVFGTGTKVTVL
notes: IgG1
The molecule B11 showed a 1/EC50 in experiment [2] of 0 nM⁻¹.

B12: CD730008 antibody (antibody, IgG1, V domains shown)
VH: EVQLLETGGGLVQPGGSLRLSCAASGFTFSSYAMSWVRQAPGKGLEWVSAISGSGGSTYYADSVKGRFTISRDNSKNTLYLQMNSLRAEDTAVYYCARGNYGNLDHWGKGTLVTVSS
VL: QSVLTQPPSVSVSPGQTASITCSGDKVGDKYASWYQQKPGQSPVLVIYQDRKRPSGIPERFSGSNSGNTATLTISGTQPMDEADYYCQAWDSSHWVFGGGTKLTVL
For B12, the “1/EC50, Enzyme Inhibition, MDA-MB-231” value with human CD73 on cells [5] was found to be 0.011 nM⁻¹. The 1/EC50 in experiment [2] is 0.0011 nM⁻¹.

B13: 73combo5 (G10 + GRVE + HPT) (antibody, IgG1, V domains shown)
VH: EVQLLESGGGLVQPGGSLRLSCAASGFTFSSYAYSWVRQAPGKGLEWVSAISGSWGRTYYADSVKGRFTISRDNSKNTLYLQMNSLRAEDTAVYYCARLGYGRVDEWGRGTLVTVSS
VL: QSVLTQPPSASGTPGQRVTISCSGSLSNIGRNDVNWYQQLPGTAPKLLIYLNNQRLGGVPDRFSGSKSGTSASLAISGLQSEDEADYYCATWDDSHPGWTFGGGTKLTVL
notes: also called clone 10 combo5
In the experiment with cynomolgus CD73 on cells, B13 had an equilibrium dissociation constant (Kd) of 0.078 nM.

B14: CD730002 antibody (antibody, IgG1, V domains shown)
VH: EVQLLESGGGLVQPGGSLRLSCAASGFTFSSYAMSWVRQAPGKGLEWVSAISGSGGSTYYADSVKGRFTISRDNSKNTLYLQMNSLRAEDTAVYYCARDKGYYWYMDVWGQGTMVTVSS
VL: QSVLTQPPSVSVSPGQTATITCSGDKVGDKYASWYQQKPGQSPVLVIYEDTKRPSRIPERFSGSNSGNTATLTISGTQALDEADYFCQAWDTSFWVFGGGTKLTVL
notes: IgG1; tested as IgG1-TM; also called clone 2
Take B14: the Kd came out at 0.052 nM in the experiment with cynomolgus CD73 on cells and 0.015 nM in experiment [1]. In experiment [2], this molecule returned a 1/EC50 of 0.2 nM⁻¹.

B15: 73combo1 (C1 + GRVE + HPT) (antibody, IgG1, V domains shown)
VH: EVQLLESGGGLVQPGGSLRLSCAASGFTFSSYAYSWVRQAPGKGLEWVSAISGSGGSTYYADSVKGRFTISRDNSKNTLYLQMNSLRAEDTAVYYCARLGYGRVDEWGRGTLVTVSS
VL: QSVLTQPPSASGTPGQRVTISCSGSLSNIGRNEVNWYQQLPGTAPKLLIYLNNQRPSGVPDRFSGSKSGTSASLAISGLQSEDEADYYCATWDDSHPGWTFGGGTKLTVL
notes: also called clone 10 combo1
With B15, the dissociation constant Kd with cynomolgus CD73 on cells was 0.09 nM; in experiment [1] it was 0.008 nM.

B16: CD730002 2C5 (antibody, IgG1, V domains shown)
VH: EVQLLESGGGLVQPGGSLRLSCAASGFTFSSYAMSWVRQAPGKGLEWVSAISGSGGSTYYADSVKRRFTISRDNSKNTLYLQMNSLRAEDTAVYYCARDKGYYWYMDVWGQGTMVTVSS
VL: QSVLTQPPSVSVSPGQTASITCSGDKVGDKYASWYQQKPGQSPVLVIYEDTKRLSGIPERFSGSNSGNTATLTISGTQAMDEADYYCQAWDTSFWVFGGGTKLTVL
notes: IgG1; also called clone 2C5 antibody
As for B16, the dissociation constant Kd was 0.063 nM with cynomolgus CD73 on cells and 0.009 nM in experiment [1].

B17: CD730004 antibody (antibody, IgG1, V domains shown)
VH: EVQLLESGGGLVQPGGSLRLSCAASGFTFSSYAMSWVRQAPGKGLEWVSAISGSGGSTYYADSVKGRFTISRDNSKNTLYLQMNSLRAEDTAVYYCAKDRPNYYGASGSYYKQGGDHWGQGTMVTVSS
VL: NFMLTQPHSVSESPGQTVTISCTRSSGSIASKYVQWYQKRPGSSPTTVIYEDTQRPSGVPDRFSGSIDISSNSASLTISGLRTEDEADYYCQSYDSTNWVFGGGTKVTVL
notes: IgG1
With B17, in experiment [2], the 1/EC50 came out at 2e-06 nM⁻¹.

For the origin of these results see patent US20160194407A1 (AstraZeneca / MedImmune, published 2016).
